The nanobody polyreactivity screen of Harvey et al. (2022)

experiment: yeast display, Sf9 membrane polyspecificity reagent, FACS + sequencing; frameworks hold sequencing errors
In short: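 A synthetic nanobody library was expressed on Saccharomyces cerevisiae BJ5465 by galactose induction for 36–48 hours. The library was stained for 1 hour at 4 °C with 10% biotinylated, detergent-solubilized Sf9 membrane reagent and enriched with streptavidin microbeads before FACS. Low and high (top ~1%) gates were set on anti-HA fluorescence for expression and streptavidin fluorescence for reagent binding, and each polyreactivity label reflects the gate of origin.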

| Sequence | polyreactivity (PSR sort gate) |
| --- | --- |
| QVQLVESGGGLVQAGGSLRLSCAASGRIFSYAMGWYRQAPGKERELVAAITRRGSTYYADSVKGRFTISRDNAKNTVYLQMKSLKPEDTAVYYCAADIYYSRTFYPMGYWGQGTQVTVSS | high polyreactivity |
| QVQLVESGGGLVQAGGSLRLSCAASGRIFSYNAMGWYRQAPGKERELVAAISYSGGRTYYADSVKGRFTISRDNAKNTVYLQMNSLKPEDTAVYYCAAAYGGSLRYTAGYYWGQGTQVTVSS | high polyreactivity |
| QVQLVESGGGLVQAGGSLRLSCAASGRIFSYNAMGWYRQAPGKERELVAAITGGGSTNYADSVKGRFTISRDNAKNTVYLQMNSLKAEDTAVYYCAARSWSYKYWGQGTQVTVSS | high polyreactivity |
| QVQLVESGGGLVQAGGSLRLSCAASGRIFSYNAMGWYRQAPGKERELVAAITSSGSTYADSVKVRFTISRDNAKNTVYLQMNSLKPEDTAVYYCASYYNWSGHYYWGQGTQVTVSS | low polyreactivity |
| QVQLVESGGGLVQAGGSLRLSCAASGRIFSYNAMGWYRQAPGQERELVASISGRGVITYYADSVKGRFTISRDNAKNTVYLQMNSLKPEDTAVYYCNARYIYTRPRPRNYWGQGTQVTVSS | high polyreactivity |
| QVQLVESGGGLVQAGGSLRLSCAASGRIFSYYAMGWYRPAPGTERELVAAITRAGGTNYADSVKGRFTISRDNAKNTVYLQMNSVKPEDTAVYYCAADRSRYRYNAPRYAYDYWGQGTQVTVSS | high polyreactivity |
| QVQLVESGGGLVQAGGSLRLSCAASGRIFSYYAMGWYRQAPGKERELVAAINWSGGSTYYADSVKGRFTISRDNAKNTVYLQMNSLKPEDTAVYYCAVDWTSAYGTYYYTPYDSWGQGTQVTVSS | low polyreactivity |
| QVQLVESGGGLVQAGGSLRLSCAASGRIFSYYAMGWYRQAPGKERELVAAISRSGGRTYYADSVKGRFTISRDNAKNTVYLQMNSLKPEDTAVYYCAALQRDYSGRYPVSMYYWGQGTQVTVSS | high polyreactivity |
| QVQLVESGGGLVQAGGSLRLSCAASGRIFSYYAMGWYRQAPGKERELVAAISRTGGRTYYADSVKGRFTISRDNAKNTVYLQKNSLKPEDTAVYYCNVVGRRYWHWDQALDYWGQGTQVTVSS | high polyreactivity |
| QVQLVESGGGLVQAGGSLRLSCAASGRIFSYYAMGWYRQAPGKERELVAAISSSGGSTYYADSVKGRFTISRDNAKNTVYLQMNSLKPEDTAVYYCAKLQYGFGRYGYWGQGTQVTVSS | high polyreactivity |
| QVQLVESGGGLVQAGGSLRLSCAASGRIFSYYAMGWYRQAPGKERELVAGIRSGCSTNYADSVKGRFTISRDNAKNTVYLQMNSLKPEDTAVYYCAARYFKFYSKGSFRYLYESWGQGTQVTVSS | high polyreactivity |
| QVQLVESGGGLVQAGGSLRLSCAASGRIFSYYAMGWYRQAPGKERELVASISRGSSTYYADSVKGRFTISRDNAKNTVYLQMNSLKPEDTAVYYCARQWLGYPYTTYTGSPVEGYGYWGQGTQVTVSS | high polyreactivity |
| QVQLVESGGGLVQAGGSLRLSCAASGRIFSYYAMGWYRQAPGKERELVASITSGGSTYADSVKGRCTISRDSAKNTVYLQMNSLKREDTAVYYCAAGGKRRWPRKHYGYWGQGSQVTVSS | high polyreactivity |
| QVQLVESGGGLVQAGGSLRLSCAASGRIFSYYAMGWYRQAPGKERELVATINWRADTYYADSVKGRFTISRDNAKKTVYLQMNSLKPEDSAVYYCAKRPRPTDKYDYWGQGTQVTVSS | high polyreactivity |
| QVQLVESGGGLVQAGGSLRLSCAASGRIFSYYAMGWYRQAPGKERELVATISYSGGSTYYADSVKGRFTISRDNAKNTVYLQMNSLKPEDTAVYYCAATRYPYYSFVRFPSRRFNYWGQGTQVTVSS | high polyreactivity |
| QVQLVESGGGLVQAGGSLRLSCAASGRIFSYYAMGWYRQAPGKERELVAVISRRGDNTYYADSVKGRFTISRDNAKNTVYLQMNSLKPEDTEVFYCAAYSWYAKDFDYWGQGTQVTVSS | high polyreactivity |
| QVQLVESGGGLVQAGGSLRLSCAASGRIFSYYDMGWYRQAPGKERELVAAITWRGGSTYYADSVKGRFTISRDNAKNTVYLQMNSLKPEDTAVYYCAADWYPSIWEYDYWGQGSQVTVSS | low polyreactivity |
| QVQLVESGGGLVQAGGSLRLSCAASGRIFSYYGMGWYRQAPGKERELVAAISTGGNTNYADSLKGRFTISRDNAKNTVYLQMNSLKPEDTAVYYCAAGFPYKFTYVCGYNHWGQGTQVTVSS | low polyreactivity |
| QVQLVESGGGLVQAGGSLRLSCAASGRIFTAYYAMGWYRQAPGKERELVASISSSGTSTYADSVKGRFTISRDNAKNTVYLQMNSLKPEDTAVYYCATRKLRTRRYDYGYWGQGTQVNVSS | low polyreactivity |
| QVQLVESGGGLVQAGGSLRLSCAASGRIFTDNVMGWYRQAPGKERELVAAITRRGGSTYYADSVKGRFTISRDNAKNTVYLQMNSLKPEDSAVYYCNARGRLYGHLYDYWGQGTQVTVSS | low polyreactivity |
| QVQLVESGGGLVQAGGSLRLSCAASGRIFTFYAMGWYRQAPGKERELVATIRNGGSTNYADSVKGRFTISRDNAKNTVYLQMNSLKPEDTAVYYCNTYYYGRRRYGYWGQGTQVTVSS | high polyreactivity |
| QVQLVESGGGLVQAGGSLRLSCAASGRIFTGNAMGWYRQAPGTERELVAAITKSGGSTYYADSVKGRFTISRDNAKNTVYLQMNSLKPEDTAVYYCAATRYLHYVYKYGYWGQGTQVTVSS | high polyreactivity |

| Sequence | polyreactivity (PSR sort gate) |
| --- | --- |
| QVQLVESGGGLVQAGGSLRLSCAASGRIFTGNSMGWYRQAPGKERELVAAITSSGGSTYYADSVKGRFTISRDNAKNTVYLQMNSLKPDDTAVYYCAALYSSWWSWYYYWGQGTQVTVSS | high polyreactivity |
| QVQLVESGGGLVQAGGSLRLSCAASGRIFTGNVMGWYRQAPGKERELFAAISYGGGSTNYADSVKGRFTISRDNAKNTVYLQMNSLKPEDTAVYYCAAGIKRYLSYYTRYGYWGQGTQVTVSS | high polyreactivity |
| QVQLVESGGGLVQAGGSLRLSCAASGRIFTGNVMGWYRQAPGKERELVAAITYRGGSTYYADSVKGRFTISRDNAKNTVYLQMHSLKPEDTAVYYCNTRWDPYGYDYWGQGTQVTVSS | low polyreactivity |
| QVQLVESGGGLVQAGGSLRLSCAASGRIFTGYAMGWYRQAPGKERELVAAISRGGSTNYADSAKGRFTISRDNAKNTVYLQLNSLKPEDTAVYYCAAGVHWDRGDYWGQGTQVTVSS | low polyreactivity |
| QVQLVESGGGLVQAGGSLRLSCAASGRIFTHNDMGWYRQAPGKERELVAAITSGGRTTYADSVKGRFTISRDNAKNTVYLQMNSLKPEDTAVYYCNADTCLGSLDFDKRDYWGQGTQVTVSS | low polyreactivity |
| QVQLVESGGGLVQAGGSLRLSCAASGRIFTHYAMGWYRQAPGKERELVAAISRTGGTTNYADSVKGRFTISRDNAKNTVYLQMNSLKPEDTADYYCAAVGKGAKDYFKYYSWGQGTQVTVSS | high polyreactivity |
| QVQLVESGGGLVQAGGSLRLSCAASGRIFTLYDMGWYIQAPGKERELVAAISNSAGSTYYADSVKGRFTISRDNAKNTVYLQMNSLKPEDTAVYYCAAELWSWWGSRDYWGQGTQVTVSS | high polyreactivity |
| QVQLVESGGGLVQAGGSLRLSCAASGRIFTNNARGWYSQAPGKERELVDAINVSGGRTYYADSVKGRFTISRDNAKNTVYLQMNSLKPEDTAVYYCNKVKETYMDNWGQGTQVTVSS | high polyreactivity |
| QVQLVESGGGLVQAGGSLRLSCAASGRIFTNYAMGWSRQAPGKERELVAAITGVGSTNYADSVKGRFTISRDNEKNTVYLQMNSLKPEDTAVYYCNAEYDYVSYVYTGFAFDYWGQGTQVTVSS | low polyreactivity |
| QVQLVESGGGLVQAGGSLRLSCAASGRIFTNYAMGWYRQAPGKEREFVAAISWSDGSTYYADSVKGRFTISRDNAKNTVYLQMNSLKPEDTAVYYCATEGTYGTFYSYRHFYYWGQGTQVTVSS | high polyreactivity |
| QVQLVESGGGLVQAGGSLRLSCAASGRIFTPNAMGWYRQAPGKERELVAAISRSGGSTYYADSVKGRFTISRDTAKNTVYLQMKSLKPEDTAVDYCNKLRTPSSGLDYWGQGTQVTVSS | high polyreactivity |
| QVQLVESGGGLVQAGGSLRLSCAASGRIFTPYAMGWYRQAPGKERELVAVIRDGSTYYADSVKGRFTISRDNAKNTVYLQMNSLKPEDPAVSYCSYDIWVWWSGAYDYWGQGNQVTVSS | low polyreactivity |
| QVQLVESGGGLVQAGGSLRLSCAASGRIFTPYARGWYRQAPGKERELVAAISGRGGSTYYADSVKGRFTISRDNAKNTVYLQMNSLKPEDTAVYYCAATYFYVYDYGLDYWGQGTQVTVSS | high polyreactivity |
| QVQLVESGGGLVQAGGSLRLSCAASGRIFTPYVMGWYRQAPGKERELVADINLSGDSTSYADSVKGRFTISRDNAKNTVYLQMNSLKPEDTAVYYCNADSYIYVGNDQYDYWGQGTQVTVSS | low polyreactivity |
| QVQLVESGGGLVQAGGSLRLSCAASGRIFTQYAMGWYRPAPGKERELVAAISSSGVRTYYADSVKGRFTISRDNAKNNVYLQMNSLKPEDTAVYYCAVRRGGAYYQFGYWGQGTQVTVSS | high polyreactivity |
| QVQLVESGGGLVQAGGSLRLSCAASGRIFTRNAMGWYRQAPGKERELVAAISGTGGSTYYADSVKGRFTISRDNAKNTVYLQMNSLKPEDTAVYYCAASRARTRSAYNYWGQGTQVTVSS | high polyreactivity |
| QVQLVESGGGLVQAGGSLRLSCAASGRIFTRNAMRWYRQAPGKEREFVAAISHSGGSTYADSVKGRFTISRDNAKNTVFLQMNSLKPEDTAVFYCAAEWSSLNFDYWGQGTQVTVSS | low polyreactivity |
| QVQLVESGGGLVQAGGSLRLSCAASGRIFTRNTMGWYRQAPGKERELVAAISGRGGSTYYADSVKGRFTISRDNAKNTVYLQMNSLKPEDTAVYYCAADGVYRGGYDYWGQVTQVTVSS | high polyreactivity |
| QVQLVESGGGLVQAGGSLRLSCAASGRIFTRYAMGWYRQAPGKERELVAAITYSGGSTYYADSVKGRFTISRDNAKNTVYLQMNSLKPEDTAVYYCAAPYIGFVRHRKMGYWGQGTQVTVSS | low polyreactivity |
| QVQLVESGGGLVQAGGSLRLSCAASGRIFTSNVMGWYRQAPGKERELVAAISWTGGNTYYADSVKGRFTISRDKAKNSVYLQMNSLKPEDTAVYYCAVTYWSAVFIPNKYDYWGQGTQVTVSS | low polyreactivity |
| QVQLVESGGGLVQAGGSLRLSCAASGRIFTSYAMGWYRQAPGKEREFVAAITRRGGSTYYADSVKGRFTISRDNAKNTVYLQMKSLKQEDTAVYYCAADIYSVPYPSWARYDYWGQGTQVTVSS | high polyreactivity |
